According to patent US20260265357A1 (NEPHRIS, published 2026):

T1: mouse NBL1 (mouse, UniProt Q61477 17-178, limits assumed)
T1 sequence (looked up): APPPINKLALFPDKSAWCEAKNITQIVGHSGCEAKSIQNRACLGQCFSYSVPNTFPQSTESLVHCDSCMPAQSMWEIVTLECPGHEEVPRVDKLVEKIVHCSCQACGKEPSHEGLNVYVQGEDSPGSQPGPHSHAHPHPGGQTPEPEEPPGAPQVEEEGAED

T2: human NBL1 (neuroblastoma suppressor of tumorigenicity 1) (human, UniProt P41271 17-181, limits assumed)
T2 construct: Recombinant human NBL1; also called DAN; DAND1
T2 sequence (looked up): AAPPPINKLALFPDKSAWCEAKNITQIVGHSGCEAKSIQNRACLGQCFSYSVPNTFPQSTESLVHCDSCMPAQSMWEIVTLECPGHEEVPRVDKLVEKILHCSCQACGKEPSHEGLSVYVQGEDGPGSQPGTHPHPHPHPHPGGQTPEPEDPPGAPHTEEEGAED


Assays:
mouse NBL1 = target: T1, mouse NBL1; assay: ELISA, IgG1 format
Experimental: (§1) Naïve human phage display libraries were panned to discover Fabs capable of binding human NBL1 (UniProt ID P41271), and further screened for potential inter species cross reactivity to mouse NBL1 (UniProt ID Q61477) and/or cynomolgus (“cyno”) NBL1 (UniProt ID A0A2K5WIY3). […] Antigen binding of the IgG1 formatted antibodies was tested by ELISA and EC50 values were calculated.

[1] = target: T2, human NBL1 (neuroblastoma suppressor of …); assay: ELISA, IgG1 format
Experimental: as §1

| binding result (mouse NBL1) | binding result [1] | Binder |
| --- | --- | --- |
| binds | binds | Antibody YU1019-A12 (antibody, V domains shown) VH: EVQLLESGPGLVKPSQTLSLTCTVSGGSISSGDYYWSWIRQPPGKGLEWIGYIYYSGSTYYNPSLKSRVTISVDTSKNQFSLKLSSVTAADTAVYYCARGRRLLLFHWGQGTTVTVSS VL: QSVLTQPPSVSAAPGQKVTISCSGSGSSIGNNYVSWYQQVPGTPPKLLIYDNNKRASGIPDRFSGSKSGTSATLGITGLQTGDEADYYCGTWDNSLSAVVFGGGTKLTVL |
| binds | binds | Antibody YU1018-E01 (antibody, V domains shown) VH: QVQLVQSGAEVKKPGASVKVSCKASGYTFTSYGISWVRQAPGRGLEWMGWISAYNGNTNYAQKLQGRVTMTTDTSTSTAYMELRSLRSDDTAVYYCARGPRDGYNDYWGQGTLVTVSS VL: not shown |
| binds | binds | Antibody YU1018-E04 (antibody, V domains shown) VH: QVQLVQSGAEVKKPGESLKISCKGSGYSFTSYWIGWVRQMPGKGLEWMGIIYPGDSDTRYSPSFQGQVTISADKSISTAYLQWSSLKASDTAMYYCARAIVGATSGYWFDPWGQGTLVTVSS VL: not shown |

The next lines start with the binder.

| Binder | binding result (mouse NBL1) | binding result [1] |
| --- | --- | --- |
| Antibody YU1018-D06 (antibody, V domains shown) VH: QVQLVESGPGLVKPSQTLSLTCTVSGGSISSGGYYWSWIRQHPGKGLEWIGYIYYSGSTYYNPSLKSRVTISVDTSKNQFSLKLSSVTAADTAVYYCARSGAAGIPWFDPWGQGTLVTVSS VL: QSVLTQPPSVSAAPGQKVTISCSGSSSNIGNNYVSWYQQLPGTAPKLLIYENNERPSGIPDRLSGSKSGTSATLAITGLQTGDEADYYCGTWDSSLSAVVFGGGTKLTVL | binds | binds |
| Antibody YU1018-G01 (antibody, V domains shown) VH: QVQLVQSGAEVKKPGASVKVSCKASGYTFTSYAMHWVRQAPGQRLEWMGWINAGNGNTKYSQKFQGRVTITRDTSASTAYMELSSLRSEDTAVYYCARGRELLTFDYWGQGTLVTVSS VL: not shown | binds | binds |
| Antibody YU1018-D12 (antibody, V domains shown) VH: EVQLVQSGAEVKKPGASVKVSCKASGYTFTSYGISWVRQAPGQGLEWMGWISAYNGNTNYAQKLQGRVTMTTDTSTSTAYMELRSLRSDDTAVYYCARDVGYSYGIFDYWGQGTLVTVSS VL: not shown | binds | binds |
| Antibody YU1019-B06 (antibody, V domains shown) VH: EVQLLESGGGVVQPGRSLRLSCAASGFTFSSYAMHWVRQAPGKGLEWVAVISYDGSNKYYADSVKGRFTISRDNSKNTLYLQMNSLRAEDTAVYYCASPVLRYFDWLPNYWGQGTLVTVSS VL: not shown | binds | binds |
| Antibody YU1018-E07 (antibody, V domains shown) VH: EVQLLESGGGVVQPGRSLRLSCAASGFTFSSYAMHWVRQAPGKGLEWVAVISYDGSNKYYADSVKGRFTISRDNSKNTLYLQMNSLRAEDTAVYYCASPVLRYFDWLPNYWGQGTTVTVSS VL: not shown | binds | binds |
| Antibody YU1018-D08 (antibody, V domains shown) VH: QVQLVQSGAEVKKPGSSVKVSCKASGGTFSSYAISWVRQAPGQGLEWMGGIIPIFGTANYAQKFQGRVTITADKSTSTAYMELSSLRSEDTAVYYCARDRYYDSSGYYLMDPWGQGTLVTVSS VL: not shown | binds | binds |
